Measured values: the supplement of paper PMC6757056
± gives the standard deviation of the averaged measurements.

B1: library; a variant is named by its letters at N, in order (parent)
chain: GCUGUCACCGGAAUACCAGCAUCGUCUUGAUGCCCUUGGAAGUCCGGUCUGAUGAGUCCNNNNNGGACGAAACAGC

Experiments:
theophylline [1] = variants of: B1; experiment: FACS-Seq fitted mean relative fluorescence mCherry/BFP without ligand (log10 relative fluorescence); higher = higher reporter protein expression; settings: HEK293T, ligand present: no
Method in brief: (§1)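 Fluorescence values are fitted normal means of bin counts along the mCherry/BFP axis. HEK293T libraries lentivirally carrying the ribozyme switch in an mCherry reporter, with an EF1α-BFP marker, were enriched, exposed to ligand or not for 48 h, and sorted into 6 bins. Genomic DNA per bin was PCR-amplified, barcoded and run on MiSeq. Means of log10(mCherry/BFP) were scaled to five spiked-in control ribozymes.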

theophylline [2] = variants of: B1; experiment: normalized RNA/DNA level with ligand (relative to sTRSVctl = 100) (log10 (% of sTRSVctl)); higher = less ribozyme self-cleavage, higher mRNA level; settings: ligand concentration (+) RNA-Seq: 5 mM, HEK293T, reporter: mCherry (pCS4076), ligand present: yes
Method in brief: (§2)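 RNA level was computed as RNA reads over DNA reads divided by a spiked-in non-cleaving sequence or by the top sequences, then scaled and log-transformed. Scaling was ×100 with log10, the top group was 25 sequences, and the threshold was ≥100 DNA reads. The reads came from HEK293T cells transfected at 4 µg per 6-well well with ribozyme switch library plasmids (mCherry, or eGFP in some ligand experiments). Total RNA was extracted with EDTA 72 h after transfection, with any ligand added 1 h before it.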

theophylline [3] = variants of: B1; experiment: normalized RNA/DNA level without ligand (relative to sTRSVctl = 100) (log10 (% of sTRSVctl)); higher = less ribozyme self-cleavage, higher mRNA level; settings: HEK293T, reporter: mCherry (pCS4076), ligand present: no
Method in brief: as §2

theophylline [4] = variants of: B1; experiment: FACS-Seq fitted mean relative fluorescence mCherry/BFP with ligand (log10 relative fluorescence); ligand concentration (+) FACS-Seq: 1 mM; higher = higher reporter protein expression; settings: HEK293T, ligand present: yes
Method in brief: as §1

Variant | FACS-Seq fitted mean (log10) (theophylline [1]) | normalized RNA/DNA level with ligand (log10) (theophylline [2]) | normalized RNA/DNA level without ligand (log10) (theophylline [3]) | FACS-Seq fitted mean (log10) (theophylline [4])
AUAUU | 0.891 ± 0.015 | 2.05 ± 0.067 | 1.91 ± 0.024 | 0.928 ± 0.12
AUAUC | 0.978 ± 0.081 | 1.912 ± 0.018 | 1.94 ± 0.048 | 1.06 ± 0.012
AUAUA | -0.278 ± 0.26 | 2.006 ± 0.015 | 1.75 ± 0.028 | 0.0109 ± 0.01
AUAUG | 0.794 ± 0.14 | 1.99 ± 0.045 | 1.8 ± 0.087 | 0.981 ± 0.043
AGGAG | 0.642 ± 0.032 | 1.92 ± 0.022 | 1.73 ± 0.072 | 0.834 ± 0.045
AGGAA | 0.0559 ± 0.0084 | 1.85 ± 0.12 | 1.17 ± 0.079 | 0.552 ± 0.029
AGGAC | 0.549 ± 0.067 | 1.97 ± 0.089 | 1.81 ± 0.12 | 0.721 ± 0.074
CGGGC | 0.725 ± 0.09 | 1.94 ± 0.065 | 2.01 ± 0.0021 | 0.717 ± 0.016
CGGGA | 0.508 ± 0.043 | 2.01 ± 0.033 | 1.74 ± 0.071 | 0.753 ± 0.077
CUCUA | 0.786 ± 0.075 | 2.05 ± 0.018 | 1.78 ± 0.063 | 0.994 ± 0.09
CUCUU | 0.739 ± 0.01 | 2.032 ± 0.0025 | 1.91 ± 0.07 | 0.874 ± 0.038
CUCUC | 0.298 ± 0.1 | 2.03 ± 0.027 | 1.95 ± 0.045 | 0.448 ± 0.12
CUAUC | 1.23 ± 0.19 | 1.89 ± 0.059 | 1.93 ± 0.073 | 1.16 ± 0.078
CUAUA | 0.141 ± 0.018 | 1.972 ± 0.0076 | 1.61 ± 0.08 | 0.384 ± 0.024
CUAUU | 0.965 ± 0.18 | 2.03 ± 0.023 | 1.85 ± 0.1 | 0.924 ± 0.012
AUACU | 0.617 ± 0.06 | 2.02 ± 0.038 | 1.79 ± 0.033 | 0.713 ± 0.032
AUACA | 0.687 ± 0.07 | 1.98 ± 0.021 | 1.85 ± 0.12 | 0.796 ± 0.012
AUACG | 0.526 ± 0.063 | 2.0061 ± 0.0018 | 1.831 ± 0.0082 | 0.507 ± 0.02
UGCUU | 0.84 ± 0.14 | 1.99 ± 0.079 | 1.95 ± 0.054 | 0.851 ± 0.037
CUGCC | 0.906 ± 0.094 | 2.09 ± 0.045 | 1.9591 ± 0.0014 | 0.841 ± 0.055
CUGCU | 0.644 ± 0.032 | 1.92 ± 0.082 | 1.86 ± 0.062 | 0.658 ± 0.0024
GUCCU | 1.16 ± 0.13 | 2.03 ± 0.052 | 2 ± 0.1 | 1.13 ± 0.12
UUAUC | 1.09 ± 0.15 | 2.04 ± 0.049 | 1.96 ± 0.16 | 1.19 ± 0.12
UUAUU | 0.914 ± 0.092 | 1.96 ± 0.12 | 1.95 ± 0.11 | 0.942 ± 0.076

Variant | FACS-Seq fitted mean (log10) (theophylline [1]) | normalized RNA/DNA level with ligand (log10) (theophylline [2]) | normalized RNA/DNA level without ligand (log10) (theophylline [3]) | FACS-Seq fitted mean (log10) (theophylline [4])
UUAUG | 0.732 ± 0.015 | 2.06 ± 0.071 | 1.907 ± 0.0097 | 0.821 ± 0.031
AUCUU | 0.605 ± 0.046 | 2.03 ± 0.055 | 1.93 ± 0.086 | 0.585 ± 0.0056
AUCUA | 0.874 ± 0.15 | 1.99 ± 0.087 | 1.89 ± 0.12 | 0.828 ± 0.069
AUCUC | 0.832 ± 0.12 | 2.03 ± 0.032 | 1.97 ± 0.013 | 0.758 ± 0.14
CGCUU | 0.746 ± 0.19 | 1.99 ± 0.087 | 1.62 ± 0.075 | 0.896 ± 0.11
CGCUA | 0.353 ± 0.072 | 1.87 ± 0.069 | 1.48 ± 0.041 | 0.612 ± 0.076
UGGCU | 1.01 ± 0.063 | 2.01 ± 0.022 | 1.948 ± 0.011 | 0.992 ± 0.099
UUCUC | 1.19 ± 0.051 | 1.99 ± 0.049 | 1.94 ± 0.057 | 1.15 ± 0.13
UUCUU | 0.641 ± 0.06 | 2.03 ± 0.11 | 1.99 ± 0.057 | 0.58 ± 0.037
AGGGC | 0.731 ± 0.092 | 1.95 ± 0.022 | 1.93 ± 0.094 | 0.756 ± 0.037
AGGGU | 0.635 ± 0.08 | 2.05 ± 0.073 | 1.74 ± 0.05 | 0.897 ± 0.059
AGGGA | 0.303 ± 0.0048 | 2.04 ± 0.079 | 1.48 ± 0.1 | 0.659 ± 0.029
GUACU | 0.8686 ± 0.0017 | 2 ± 0.044 | 1.93 ± 0.08 | 0.97 ± 0.03
CGUAA | 0.083 ± 0.047 | 2.04 ± 0.029 | 1.303 ± 0.0043 | 0.767 ± 0.036
CGUAC | 0.651 ± 0.027 | 1.92 ± 0.093 | 1.75 ± 0.062 | 0.792 ± 0.044
CGUAU | 0.177 ± 0.0091 | 2 ± 0.05 | 1.54 ± 0.11 | 0.491 ± 0.0065
AGGCU | 0.7841 ± 0.0051 | 1.96 ± 0.053 | 1.936 ± 0.007 | 0.847 ± 0.013
AGGCA | 0.779 ± 0.085 | 1.99 ± 0.039 | 1.79 ± 0.057 | 0.896 ± 0.1
AUGAA | 0.317 ± 0.045 | 1.94 ± 0.04 | 1.52 ± 0.074 | 0.5036 ± 0.0038
AUGAC | 0.5991 ± 0.0031 | 1.914 ± 0.016 | 1.87 ± 0.16 | 0.786 ± 0.021
AUGAU | 0.439 ± 0.07 | 2.01 ± 0.086 | 1.75 ± 0.12 | 0.262 ± 0.027
AUGAG | 0.655 ± 0.014 | 1.914 ± 0.0079 | 1.812 ± 0.0077 | 0.868 ± 0.029
AGUCA | 0.8 ± 0.087 | 1.98 ± 0.14 | 1.73 ± 0.059 | 0.766 ± 0.027
AGCUA | 0.662 ± 0.064 | 2.03 ± 0.037 | 1.76 ± 0.044 | 0.7922 ± 0.0018

Variant | FACS-Seq fitted mean (log10) (theophylline [1]) | normalized RNA/DNA level with ligand (log10) (theophylline [2]) | normalized RNA/DNA level without ligand (log10) (theophylline [3]) | FACS-Seq fitted mean (log10) (theophylline [4])
AGCUC | 0.692 ± 0.15 | 2.04 ± 0.2 | 1.9 ± 0.046 | 0.565 ± 0.047
UGUGA | 0.563 ± 0.0013 | 2.05 ± 0.037 | 1.54 ± 0.11 | 0.837 ± 0.034
UGUGC | 0.71 ± 0.038 | 2.04 ± 0.047 | 1.93 ± 0.086 | 0.652 ± 0.0049
UGUGU | 0.525 ± 0.032 | 1.88 ± 0.044 | 1.87 ± 0.15 | 0.589 ± 0.048
CUCCU | 0.814 ± 0.015 | 2.005 ± 0.011 | 1.88 ± 0.098 | 0.682 ± 0.033
CUCCC | 0.836 ± 0.04 | 2.05 ± 0.12 | 2 ± 0.14 | 0.811 ± 0.012
CUCCA | 1.01 ± 0.29 | 2.03 ± 0.048 | 1.87 ± 0.038 | 0.946 ± 0.15
GUAAU | 0.914 ± 0.062 | 1.937 ± 0.015 | 1.82 ± 0.085 | 0.966 ± 0.16
GUAAA | 0.745 ± 0.13 | 1.982 ± 0.016 | 1.7 ± 0.045 | 0.936 ± 0.11
AUCCG | 0.573 ± 0.011 | 1.92 ± 0.097 | 1.96 ± 0.014 | 0.591 ± 0.063
AUCCA | 0.993 ± 0.031 | 2 ± 0.13 | 1.95 ± 0.1 | 0.788 ± 0.066
UGGAU | 0.442 ± 0.064 | 2 ± 0.12 | 1.79 ± 0.056 | 0.624 ± 0.073
UGGAC | 0.19 ± 0.013 | 2 ± 0.049 | 1.93 ± 0.056 | 0.236 ± 0.01
UGGUC | 0.57045 ± 0.00034 | 1.984 ± 0.0062 | 1.95 ± 0.12 | 0.356 ± 0.084
UGGUA | 0.0996 ± 0.099 | 1.946 ± 0.011 | 1.28 ± 0.11 | 0.69 ± 0.042
UGGUG | 0.674 ± 0.065 | 2.04 ± 0.041 | 1.87 ± 0.1 | 0.661 ± 0.083
UGGUU | 0.9379 ± 0.005 | 2.042 ± 0.011 | 1.846 ± 0.0051 | 1.01 ± 0.049
CGGAC | 0.877 ± 0.081 | 1.93 ± 0.024 | 1.8 ± 0.087 | 0.793 ± 0.037
CGGAA | -0.0214 ± 0.074 | 1.9 ± 0.055 | 1.25 ± 0.17 | 0.354 ± 0.0054
CGGAU | 0.215 ± 0.064 | 2 ± 0.11 | 1.65 ± 0.11 | 0.522 ± 0.046
AUCAC | 0.845 ± 0.16 | 1.98 ± 0.022 | 1.96 ± 0.068 | 0.786 ± 0.039
AUCAA | 1.02 ± 0.047 | 1.95 ± 0.084 | 1.68 ± 0.12 | 1.15 ± 0.083
GUAGA | 0.949 ± 0.15 | 1.8 ± 0.057 | 1.66 ± 0.14 | 0.935 ± 0.15
